{"source": "patent US20040102370A1", "about": "(IMPERIAL INNOVATIONS, published 2004)", "binders": {"B1": {"name": "Peptide A(d): [{Ac-DRVEPYSSTA}2-K]2-K-OH (peptide)", "peptide": "Ac-DRVEPYSSTA", "chain": "Lys-OH", "modifications": "also: four copies of chain 1 on a branched core of three lysines (two Lys on α- and ε-amines of C-terminal Lys)"}}, "note": "“And” between values parts separate entries of the source, which are not always exact repeats. Identical values can stand only once. No end group written: not given here."}
{"biological_target": "FGF receptors", "assay": "cell-based or functional assay"}
{"binder": "Ac-EGMEGM-NH2", "note": "[Peptide D: Acetyl-EGMEGM-amide]", "peptide concentration giving maximal effect in the neurite outgrowth assay": "63 µg/ml and 100 µM"}
{"binder": "B1", "peptide concentration giving maximal effect in the neurite outgrowth assay": "~0.4 µM"}
{"binder": "Ac-DAVEPYSSTA-NH2", "note": "[Peptide F: Acetyl-DAVEPYSSTA-amide]", "peptide concentration giving maximal effect in the neurite outgrowth assay": "100 µg/ml and 100 µM"}
{"binder": "Ac-DRVE-NH2", "note": "[Peptide B: Acetyl-DRVE-amide]", "peptide concentration giving maximal effect in the neurite outgrowth assay": "75 µg/ml and 150 µM"}
